Source: paper PMC8169799 (iScience, 2021)

Target: the molecule itself
Experiment: cryo-EM structure

B1: copper efflux regulator (CueR), Escherichia coli (natural protein, E. coli)
chain: MNISDVAKITGLTSKAIRFYEEKGLVTPPMRSENGYRTYTQQHLNELTLLRQARQVGFNLEESGELVNLFNDPQRHSADVKRRTLEKVAEIERHIEELQSMRDQLLALANACPGDDSADCPIIENLSGCCHHRAG
- stoichiometry N: 2
